# Paper PMC12661925 (Structure (London, England : 1993), 2025)
# Read-outs that look alike come from different tables or passages of the source.
# B1: Figures 4 and 5 foreign DNA without PAM (32/32 nt) (dsDNA)
# DNA 1: TACATGCTCTAGCAAAACGACTTGCACAACGA
# DNA 2: ATTAAGTGCAAGTCGTTTTGCTAGAGCTACAT
# B2: Cas1 from the PA14 strain of Pseudomonas aeruginosa (type I-F), StrepII-tagged (enzyme, Pseudomonas aeruginosa (strain PA14))
# chain: MDDISPSELKTILHSKRANLYYLQHCRVLVNGGRVEYVTDEGRHSHYWNIPIANTTSLLLGTGTSITQAAMRELARAGVLVGFCGGGGTPLFSANEVDVEVSWLTPQSEYRPTEYLQRWVGFWFDEEKRLVAARHFQRARLERIRHSWLEDRVLRDAGFAVDATALAVAVEDSARALEQAPNHEHLLTEEARLSKRLFKLAAQATRYGEFVRAKRGSGGDPANRFLDHGNYLAYGLAATATWVLGIPHGLAVLHGKTRRGGLVFDVADLIKDSLILPQAFLSAMRGDEEQDFRQACLDNLSRAQALDFMIDTLKDVAQRSTVSA
# B3: Figure 4 foreign DNA with PAM (34/34 nt) (dsDNA)
# DNA 1: TACATGCTCTAGCAAAACGACTTGCACAACGAGG
# DNA 2: CCATTAAGTGCAAGTCGTTTTGCTAGAGCTACAT
# B4: Figure 3 foreign DNA, PAM on one strand (34/32 nt) (dsDNA)
# DNA 1: AAAAACCTGGACTACTACAACCTTCGCTTTTTGG
# DNA 2: TTTTTGCGAAGGTTGTAGTAGTCCAGGAAAAA
# B5: Cas2/3 fusion protein from the PA14 strain of Pseudomonas aeruginosa (type I-F), untagged (enzyme, Pseudomonas aeruginosa (strain PA14))
# chain: MNILLVSQCEKRALSETRRILDQFAERRGERTWQTPITQAGLDTLRRLLKKSARRNTAVACHWIRGRDHSELLWIVGDASRFNAQGAVPTNRTCRDILRKEDENDWHSAEDIRLLTVMAALFHDIGKASQAFQAKLRNRGKPMADAYRHEWVSLRLFEAFVGPGSSDEDWLRRLADKRETGDAWLSQLARDDRQSAPPGPFQKSRLPPLAQAVGWLIVSHHRLPNGDHRGSASLARLPAPIQSQWCGARDADAKEKAACWQFPHGLPFASAHWRARTALCAQSMLERPGLLARGPALLHDSYVMHVSRLILMLADHHYSSLPADSRLGDPNFPLHANTDRDSGKLKQRLDEHLLGVALHSRKLAGTLPRLERQLPRLARHKGFTRRVEQPRFRWQDKAYDCAMACREQAMEHGFFGLNLASTGCGKTLANGRILYALADPQRGARFSIALGLRSLTLQTGQAYRERLGLGDDDLAILVGGSAARELFEKQQERLERSGSESAQELLAENSHVHFAGTLEDGPLREWLGRNSAGNRLLQAPILACTIDHLMPASESLRGGHQIAPLLRLMTSDLVLDEVDDFDIDDLPALSRLVHWAGLFGSRVLLSSATLPPALVQGLFEAYRSGREIFQRHRGAPGRATEIRCAWFDEFSSQSSAHGAVTSFSEAHATFVAQRLAKLEQLPPRRQAQLCTVHAAGEARPALCRELAGQMNTWMADLHRCHHTEHQGRRISFGLLRLANIEPLIELAQAILAQGAPEGLHVHLCVYHSRHPLLVRSAIERQLDELLKRSDDDAAALFARPTLAKALQASTERDHLFVVLASPVAEVGRDHDYDWAIVEPSSMRSIIQLAGRIRRHRSGFSGEANLYLLSRNIRSLEGQNPAFQRPGFETPDFPLDSHDLHDLLDPALLARIDASPRIVEPFPLFPRSRLVDLEHRRLRALMLADDPPSSLLGVPLWWQTPASLSGALQTSQPFRAGAKERCYALLPDEDDEERLHFSRYEEGTWSNQDNLLRNLDLTYGPRIQTWGTVNYREELVAMAGREDLDLRQCAMRYGEVRLRENTQGWSYHPYLGFKKYN
# Key:
# [1] = target: T1, Cas1-2/3 integrase (StrepII-Cas1 + Cas2/3 fusion) (Pseudomonas aeruginosa PA14, UniProt Q02ML7;Q02ML8 1-324;1-1076); experiment: cryo-EM
# T1 sequence 1: B2 chain
# T1 sequence 2: B5 chain
# cryo-EM structure = target: the molecule itself; experiment: cryo-EM structure
# [2] = target: T1, Cas1-2/3 integrase (StrepII-Cas1 + …); experiment: cryo-EM; remark: listed apart in the source
Binder,binding result [1],binding result (cryo-EM structure),also measured
B1,binds,–,–
B2,–,binds,–
B3,binds,–,–
B4,–,–,binding result [2]: binds
B5,–,binds,–
